Target: T1, recombinant human MASP-2 protein (human, UniProt O00187 16-686)
T1 construct: Used as analyte in BLI and SPR; also called hMASP-2; hMASP2-FL
Test: BLI (Gator), antibody on Protein A biosensor, human MASP-2, 30 C
Protocol: The assay was performed at 30° C. and the kinetics buffer was 1×PBS (136 mM NaCl, 8 mM […], 2 mM KH₂PO₄, 2.6 mM KCl) with 0.1% BSA and 0.005% Tween-20, pH7.4. Diluted antibodies and human MASP-2 were added to the corresponding well. After loading human MASP-2, biosensor detected the association and dissociation of antibodies. The regeneration of biosensors was in buffer 10 mM glycine, pH2.0.

T1 sequence (O00187 16-686): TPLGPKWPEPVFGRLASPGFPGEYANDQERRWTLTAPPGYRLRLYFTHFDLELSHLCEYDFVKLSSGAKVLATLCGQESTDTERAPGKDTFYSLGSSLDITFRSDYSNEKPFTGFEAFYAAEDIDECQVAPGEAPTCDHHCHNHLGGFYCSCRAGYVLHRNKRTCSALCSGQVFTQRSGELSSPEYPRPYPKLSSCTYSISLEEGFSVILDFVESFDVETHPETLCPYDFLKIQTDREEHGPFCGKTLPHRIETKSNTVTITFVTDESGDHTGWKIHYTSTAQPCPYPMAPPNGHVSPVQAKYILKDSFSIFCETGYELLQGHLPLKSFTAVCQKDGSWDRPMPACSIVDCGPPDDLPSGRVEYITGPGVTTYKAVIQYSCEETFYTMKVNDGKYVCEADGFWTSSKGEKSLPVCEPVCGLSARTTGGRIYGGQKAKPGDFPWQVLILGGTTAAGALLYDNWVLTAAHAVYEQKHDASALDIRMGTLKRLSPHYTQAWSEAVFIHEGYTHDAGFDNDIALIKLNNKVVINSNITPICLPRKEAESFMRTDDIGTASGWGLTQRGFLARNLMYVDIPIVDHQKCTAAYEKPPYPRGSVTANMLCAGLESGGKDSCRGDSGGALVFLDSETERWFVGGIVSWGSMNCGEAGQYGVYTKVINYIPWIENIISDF

| Binder | Kd [nM] | koff [s⁻¹] | kon [M⁻¹ s⁻¹] |
| --- | --- | --- | --- |
| 3E10-hu-9 (antibody, V domains shown, also called humanized 3E10 clone with 3E10-hu-VH-9) VH: QVQLVESGGGVVQPGRSLRLSCAASGFSLTTYGVHWVRQAPGKGLEWLGVIWKGGSTDYNAAFMSRLTISKDNSKSTVYIQMNSLRAEDTAVYYCAKTLELRRRDYYAMDYWGQGTLVTVSS VL: DIVMTQSPDSLAVSLGERATINCKSSQNILYSSNQKNLLAWYQQKPGQPPKLLIYWASTRESGVPDRFSGSGSGTDFTLTISSLQAEDVAVYYCHQYFSSYTFGQGTKLEIK | 12.8 | 0.000952 | 74200 |
| 3E10-hu-12 (antibody, V domains shown, also called humanized 3E10 clone with 3E10-hu-VH-12) VH: QVQLVESGGGVVQPGRSLRISCAVSGFSLTTYGVHWVRQAPGKGLEWLGVIWKGGSTDYNAAFMSRLTISKDNSKSTVYIQMNSLRAEDTAVYYCVKTLELRRRDYYAMDYWGQGTLVTVSS VL: DIVMTQSPDSLAVSLGERATINCKSSQNILYSSNQKNLLAWYQQKPGQPPKLLIYWASTRESGVPDRFSGSGSGTDFTLTISSLQAEDVAVYYCHQYFSSYTFGQGTKLEIK | 14.3 | 0.00103 | 72300 |
| 3E10-hu-6 (antibody, V domains shown, also called humanized 3E10 clone with 3E10-hu-VH-6) VH: QVQLVESGGGVVQPGRSLRLSCAASGFTLSTYGVHWVRQAPGKGLEWLGVIWKGGSTDYNAAFMSRLTISKDNSKNTVYIQMNSLRAEDTAVYYCAKTLELRRRDYYAMDYWGQGTLVTVSS VL: DIVMTQSPDSLAVSLGERATINCKSSQNILYSSNQKNLLAWYQQKPGQPPKLLIYWASTRESGVPDRFSGSGSGTDFTLTISSLQAEDVAVYYCHQYFSSYTFGQGTKLEIK | 15.2 | 0.000985 | 64600 |
| 3E10-hu-0 (antibody, V domains shown, also called humanized 3E10 clone with 3E10-hu-VH-0) VH: QVQLVESGGGVVQPGRSLRLSCAASGFTFSTYGVHWVRQAPGKGLEWVAVIWKGGSTDYNAAFMSRFTISRDNSKNTIYIQMNSLRAEDTAVYYCAKTLELRRRDYYAMDYWGQGTLVTVSS VL: DIVMTQSPDSLAVSLGERATINCKSSQNILYSSNQKNLLAWYQQKPGQPPKLLIYWASTRESGVPDRFSGSGSGTDFTLTISSLQAEDVAVYYCHQYFSSYTFGQGTKLEIK | 26.3 | 0.00102 | 38700 |
| 3E10-hu-11 (antibody, V domains shown, also called humanized 3E10 clone with 3E10-hu-VH-11) VH: QVQLVESGGGVVQPGRSLRISCAASGFSLTTYGVHWVRQAPGKGLEWLGVIWKGGSTDYNAAFMSRLTISKDNSKSTVYIQMNSLRAEDTAVYYCVKTLELRRRDYYAMDYWGQGTLVTVSS VL: DIVMTQSPDSLAVSLGERATINCKSSQNILYSSNQKNLLAWYQQKPGQPPKLLIYWASTRESGVPDRFSGSGSGTDFTLTISSLQAEDVAVYYCHQYFSSYTFGQGTKLEIK | 13.7 | 0.00107 | 77700 |
| 3E10-hu-7-2 (antibody, V domains shown, also called humanized 3E10 clone with 3E10-hu-VH-7-2) VH: QVQLVESGGGVVQPGRSLRLSCAASGFTLSTYGVHWVRQAPGKGLEWLGVIWKGGSTDYNAAFMSRLTISKDNSKNTVYIQMNSLRAEDTAVYYCVKTLELRRRDYYAMDYWGQGTLVTVSS VL: DIVMTQSPDSLAVSLGERATINCKSSQNILYSSNQKNLLAWYQQKPGQPPKLLIYWASTRESGVPDRFSGSGSGTDFTLTISSLQAEDVAVYYCHQYFSSYTFGQGTKLEIK | 14.7 | 0.00107 | 72900 |
| 3E10-hu-10 (antibody, V domains shown, also called humanized 3E10 clone with 3E10-hu-VH-10) VH: QVQLVESGGGVVQPGRSLRLSCAASGFSLTTYGVHWVRQAPGKGLEWLGVIWKGGSTDYNAAFMSRLTISKDNSKSTVYIQMNSLRAEDTAVYYCVKTLELRRRDYYAMDYWGQGTLVTVSS VL: DIVMTQSPDSLAVSLGERATINCKSSQNILYSSNQKNLLAWYQQKPGQPPKLLIYWASTRESGVPDRFSGSGSGTDFTLTISSLQAEDVAVYYCHQYFSSYTFGQGTKLEIK | 15.3 | 0.00111 | 72800 |
| 3E10-hu-8 (antibody, V domains shown, also called humanized 3E10 clone with 3E10-hu-VH-8) VH: QVQLVESGGGVVQPGRSLRLSCAASGFSLTTYGVHWVRQAPGKGLEWLGVIWKGGSTDYNAAFMSRLTISKDNSKNTVYIQMNSLRAEDTAVYYCAKTLELRRRDYYAMDYWGQGTLVTVSS VL: DIVMTQSPDSLAVSLGERATINCKSSQNILYSSNQKNLLAWYQQKPGQPPKLLIYWASTRESGVPDRFSGSGSGTDFTLTISSLQAEDVAVYYCHQYFSSYTFGQGTKLEIK | 15.6 | 0.00107 | 68600 |
| 3E10-hu-7-1 (antibody, V domains shown, also called humanized 3E10 clone with 3E10-hu-VH-7-1) VH: QVQLVESGGGVVQPGRSLRLSCAASGFTLSTYGVHWVRQAPGKGLEWLGVIWKGGSTDYNAAFMSRLTISKDNSKSTVYIQMNSLRAEDTAVYYCAKTLELRRRDYYAMDYWGQGTLVTVSS VL: DIVMTQSPDSLAVSLGERATINCKSSQNILYSSNQKNLLAWYQQKPGQPPKLLIYWASTRESGVPDRFSGSGSGTDFTLTISSLQAEDVAVYYCHQYFSSYTFGQGTKLEIK | 17.3 | 0.00114 | 65700 |
| anti-MASP-2 antibody clone 3E10 (chimeric 3E10) (antibody, V domains shown, Mouse variable regions; tested as a 'chimeric' antibody; also called 3E10-mus) VH: EVQLQQSGPGLVQSSQSLSITCTVSGFSLTTYGVHWVRLSPGKGLEWLGVIWKGGSTDYNAAFMSRLSITKDNSKSEVFFQMNSLQGDDSAIYYCVKTLELRRRDYYAMDYWGQGTSVTVSS VL: DIVMTQTTSSLAVSAGEKVTMSCKSSQNILYSSNQKNLLAWYQQKPGQSPKLLIYWASTRESGVPNRFTGSGSGTDFSLTINSVQPEDLAVYYCHQYFSSYTFGGGTKLEMK | 15.4 | 0.00113 | 73500 |

Target: T1, recombinant human MASP-2 protein
Test: BLI (Gator), antibody on Protein A biosensor, recombinant MASP-2 25-200 nM, 30 C
Protocol: Recombinant MASP-2 protein was diluted with kinetics buffer to get a concentration gradient: 200 nM, 100 nM, 50 nM, 25 nM, and 0 nM (reference control). Antibodies were immobilized onto Protein A biosensor after balance. A baseline was detected for 60 seconds. Then, antibody-antigen association was detected for 120 seconds to obtain data for Kₒₙ, followed by detection of dissociation in kinetic buffer for 120 seconds to obtain data for Koff. The regeneration of biosensors was done in buffer 10 mM glycine, pH2.0. All the kinetics data were collected at 30° C. Data were acquired with Gator Bioanalysis System.

| Binder | Kd [nM] | koff [s⁻¹] | kon [M⁻¹ s⁻¹] |
| --- | --- | --- | --- |
| anti-MASP-2 antibody clone 3E10 (chimeric 3E10) (antibody, V domains shown, Mouse variable regions; tested as a 'chimeric' antibody; also called 3E10-mus) VH: EVQLQQSGPGLVQSSQSLSITCTVSGFSLTTYGVHWVRLSPGKGLEWLGVIWKGGSTDYNAAFMSRLSITKDNSKSEVFFQMNSLQGDDSAIYYCVKTLELRRRDYYAMDYWGQGTSVTVSS VL: DIVMTQTTSSLAVSAGEKVTMSCKSSQNILYSSNQKNLLAWYQQKPGQSPKLLIYWASTRESGVPNRFTGSGSGTDFSLTINSVQPEDLAVYYCHQYFSSYTFGGGTKLEMK | < 0.1 | < 1e-06 | 29600 |

Target: T1, recombinant human MASP-2 protein
Test: cell-based or functional assay

| Binder | IC50 of C3 activation (mannan-coated plate, human serum) [ng/mL] | IC50 of C4 activation (mannan-coated plate, human serum) [ng/mL] | IC50 of C4 activation in 5% human serum [ng/mL] | IC50 of C4 activation in 10% human serum (methods say 25%) [ng/mL] | IC50 of C4 activation in 50% human serum [ng/mL] | IC50 of MAC activation (mannan-coated plate, human serum) [ng/mL] |
| --- | --- | --- | --- | --- | --- | --- |
| anti-MASP-2 antibody clone 3E10 (chimeric 3E10) (antibody, V domains shown, Mouse variable regions; tested as a 'chimeric' antibody; also called 3E10-mus) VH: EVQLQQSGPGLVQSSQSLSITCTVSGFSLTTYGVHWVRLSPGKGLEWLGVIWKGGSTDYNAAFMSRLSITKDNSKSEVFFQMNSLQGDDSAIYYCVKTLELRRRDYYAMDYWGQGTSVTVSS VL: DIVMTQTTSSLAVSAGEKVTMSCKSSQNILYSSNQKNLLAWYQQKPGQSPKLLIYWASTRESGVPNRFTGSGSGTDFSLTINSVQPEDLAVYYCHQYFSSYTFGGGTKLEMK | 4.14 | 3.6 | 8.26 | 30.8 | 67.3 | 3.27 |

— patent US20250154284A1 (INMAGENE PTE, published 2025)
